Results published in patent publication US20260092084A1, “PEPTIDE AND ASSEMBLY OR COMPOSITION CONTAINING SAID PEPTIDE” (priority 2022, published 2026).
Square brackets hold non-standard residues; d marks the D form. Ends that are not written are not given here. * marks the point of attachment. pS = N[C@@H](COP(=O)(O)O)C(=O)O; Tfa = O=C(C(F)(F)F)*

Columns and labels:
[1] = Average particle diameter of peptide assembly by dynamic light scattering; assay type: physicochemical; details: 10 mM HEPES, 150 mM NaCl buffer (pH 7); 40 mM DMSO stock diluted 100-fold; stood overnight; 25° C.; main peak of scattering intensity
Experimental: 5 mg of each of the peptides of Examples 1-1 to 1-5 and Reference Examples 1-1 to 1-8 was dissolved in dimethyl sulfoxide (DMSO) to provide a stock solution (40 mM). To a 10 mM HEPES and 150 mM NaCl buffer (pH 7) under stirring with a micromixer (E-36, Taitec Corporation), 4 μL of the stock solution was dropped to be diluted 100-fold. The dilution was vortexed and then left to stand still at room temperature overnight. Then, 200 μL of the dilution was used as a measurement sample and measurement of particle diameter distribution was performed at 25° C. by dynamic light scattering with Litesizer 500 (Anton Paar GmBH). The results determined by defining the main peak of a scattering intensity as the average particle diameter of an assembly are shown in Table 3. Provided that, when a polydispersity index was more than 20%, the main peak was determined with further reference to a volume-based particle diameter distribution.

[2] = Pyrene fluorescence probing, critical aggregation concentration; assay type: physicochemical; details: pyrene probe 0.1 μM in PBS, 24 hours, room temperature; inflection point of FIG. 5
Experimental: Fluorescence probing has hitherto been widely used as a technique for measuring the critical micellar concentration (CMC) of a surfactant solution. When hydrophobic fluorescent molecules are added to an aqueous solution of a surfactant and excited, week fluorescence is generated from the fluorescent molecules dispersed in the solution under a state in which the concentration of the surfactant is low. Meanwhile, the concentration of the surfactant is more than the CMC, the hydrophobic fluorescent molecule is incorporated into a micelle surrounded by hydrophobic groups of the surfactant (hydrophobic environment) and emits strong fluorescence. In this experimental example, a change in fluorescent property with a change in peptide concentration was investigated by using pyrene as a fluorescence probe and using a peptide instead of the surfactant. […]
(3) One hundred fifty microliter of the reaction solution was transferred to each well of a plate (Non-Treated Black Polystyrene 96-well plate (Corning 3694)). […] The peak value of a fluorescence intensity (384 nm) was plotted against a peptide concentration (logarithmic value).
This increased fluorescence intensity means formation of a peptide assembly that provides a hydrophobic environment capable of encapsulating pyrene. […] The peptides of Examples 1-2 and 1-5 each had approximately the same fluorescence intensity up to 0.1 mM.

DSpSEEKW-LLELLELL-RRK(Tfa)RR (DS[pS]EEKWLLELLELLRRK(Tfa)RR-NH2; N-terminus assumed; SMILES CC(C)C[C@H](NC(=O)[C@H](CC(C)C)NC(=O)[C@H](CCC(=O)O)NC(=O)[C@H](CC(C)C)NC(=O)[C@H](CC(C)C)NC(=O)[C@H](CCC(=O)O)NC(=O)[C@H](CC(C)C)NC(=O)[C@H](CC(C)C)NC(=O)[C@H](Cc1c[nH]c2ccccc12)NC(=O)[C@H](CCCCN)NC(=O)[C@H](CCC(=O)O)NC(=O)[C@H](CCC(=O)O)NC(=O)[C@H](COP(=O)(O)O)NC(=O)[C@H](CO)NC(=O)[C@@H](N)CC(=O)O)C(=O)N[C@@H](CCCNC(=N)N)C(=O)N[C@@H](CCCNC(=N)N)C(=O)N[C@@H](CCCCNC(=O)C(F)(F)F)C(=O)N[C@@H](CCCNC(=N)N)C(=O)N[C@@H](CCCNC(=N)N)C(N)=O) [Example 1-1]
Average particle diameter [1]: 380 nm | critical aggregation concentration (CAC) [2]: 50 µM
